Reference: paper PMC4148589 (Journal of cell science, 2013)
One block for each binder: values may come before it.

Assays:
Assay in all cases: FRAP
[1] = target: CaV1.2 α1C subunit, untagged (pβA-α1C) (UniProt P22002-5 1-2142)
[2] = target: CaV1.1 α1S with deletion of amino acid 344 (pc-α1Sdel1(Δ344)) (UniProt P07293 1-1873, Δ344)
[3] = target: CaV1.1 α1S with deletion of amino acids 344–345 (pc-α1Sdel2(Δ344–345)) (UniProt P07293 1-1873, Δ344–345)
[4] = target: CaV1.1 α1S with deletion of amino acids 344–346 (pc-α1Sdel3(Δ344–346)) (UniProt P07293 1-1873, Δ344–346)
[5] = target: CaV1.1 α1S subunit, untagged (pc-α1S) (UniProt P07293 1-1873)

R75 (fractional fluorescence recovery 75 s after bleaching) [2]: 20.9% | R75 (fractional fluorescence recovery 75 s after bleaching) [3]: 19.9% | R75 (fractional fluorescence recovery 75 s after bleaching) [4]: 22.8%
B1: skeletal muscle β1a subunit, GFP-tagged (pcDNA3-β1a-GFP) (natural protein)
chain: not shown
R75 (fractional fluorescence recovery 75 s after bleaching) [1]: 23.6%

R75 (fractional fluorescence recovery 75 s after bleaching) [5]: 45.2%
B2: β1a subunit with the substitution M293A, GFP-tagged (pcDNA3-β1aM293A-GFP) (natural protein)
chain: not shown
